In patent EP2130555A1:

Columns and labels:
[1] = biological target: hexahistidine-tagged bacterial gyrase subunit B (GyrB) of E. coli (E. coli) (UniProt P0AES6); assay: ultrafiltration through a 50 kDa cut-off filter, without coumermycin (monomer passes the filter)
[2] = biological target: hexahistidine-tagged bacterial gyrase subunit B (GyrB) of E. coli (E. coli) (UniProt P0AES6); assay: cell-based or functional assay
[3] = biological target: hexahistidine-tagged bacterial gyrase subunit B (GyrB) of E. coli (E. coli) (UniProt P0AES6); assay: ultrafiltration through a 50 kDa cut-off filter, with coumermycin (GyrB : coumermycin = 2:1; dimer is held back)

hexahistidine-tagged bacterial gyrase subunit B (GyrB) of E. coli (from UniProt P0AES6 1-220) (enzyme)
% of protein in filtrate [1]: 54% | hydrogel dissolution in PBS with 1 mM novobiocin, followed by release of GyrB-polymer complexes into the buffer [2]: 11 h | stability of hydrogels with DMS-crosslinked GyrB dimers in PBS with 1 mM novobiocin [2]: 31 h | % of protein in filtrate [3]: 2.8%
